± gives the uncertainty stated by the source.
Experiment: self-splicing fitness, log relative to wild type (ln ratio); higher = more splicing; Tetrahymena group I intron in knt gene, E. coli kanamycin selection, DiMSum; sequences stand for … in CUCUCU…GGAGGGAAAAGUUAUCAGGCAUGCACCUGGUAGCUAGUCUUUAAACCAAUAGAUUGCAUCGGUUUAAAAGGCAAGACCGUCAAAUUGCGGGAAAGGGGUCAACAGCCGUUCAGUACCAAGUCUCAGGGGAAACUUUGAGAUGGCCUUGCAAAGGGUAUGGUAAUAAGCUGACGGACAUGGUCCUAACCACGCAGCCAAGUCCUAAGUCAACAGAUCUUCUGUUGAUAUGGAUGCAGUUCACAGACUAAAUGUCGGUCGGGGAAGAUGUAUUCUUCUCAUAAGAUAUAGUCGGACCUCUCCUUAAUGGGAGCUAGCGGAUGAAGUGAUGCAACACUGGAGCCGCUGGGAACUAAUUUGUAUGCGAAAGUAUAUUGAUUAGUUUUGGAGUACUCGUGGUCG
Method in brief: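 A randomised library covering all eight P1ex-region intron nucleotides was built with the intron in the knt kanamycin-resistance gene on pET-22b(+) and held in E. coli BL21(DE3). Cells were grown overnight at 37°C or 30°C on LB agar, with or without 25 μg/mL kanamycin, plus 100 μg/mL carbenicillin, 50 μM IPTG and 0.2% rhamnose, and pooled colonies were amplicon-sequenced on an Illumina HiSeq 2500. DiMSum fitness is the error-weighted combination of wild-type-normalised replicate fold changes, kanamycin versus none.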

Sequence	self-splicing fitness (ln) (30 °C)	self-splicing fitness (ln) (37 °C)
AUUGAGCAAUAUUACGUGUU	-3.91 ± 0.22	-2.34 ± 0.14
AUUGAGCAAUAUUACGUUAA	-3.84 ± 0.37	-1.47 ± 0.26
AUUGAGCAAUAUUACGUUAG	-3 ± 0.14	-2.73 ± 0.19
AUUGAGCAAUAUUACGUUUG		-1.91 ± 0.26
AUUUAGCAAUAUUACGAAGG	-3.42 ± 0.38	-2.76 ± 0.41
AUUUAGCAAUAUUACGAAUC	-4.21 ± 0.31	-3.21 ± 0.35
AUUUAGCAAUAUUACGAUAC	-2.44 ± 0.17	-1.01 ± 0.25
AUUUAGCAAUAUUACGAUCC	-0.5 ± 0.4	-0.408 ± 0.23
AUUUAGCAAUAUUACGCAAA	-1.86 ± 0.15	-1.82 ± 0.17
AUUUAGCAAUAUUACGCGCC	-0.641 ± 0.26	-0.828 ± 0.34
AUUUAGCAAUAUUACGCGGA	-1.73 ± 0.23	-0.805 ± 0.17
AUUUAGCAAUAUUACGCGGC		-2.08 ± 0.5
AUUUAGCAAUAUUACGCGUC	-3.21 ± 0.3	-2.96 ± 0.47
AUUUAGCAAUAUUACGCUGG	-1.97 ± 0.27	-1.4 ± 0.33
AUUUAGCAAUAUUACGGAAG	-1.33 ± 0.29	-1.49 ± 0.39
AUUUAGCAAUAUUACGGAAU	-2.62 ± 0.28	-2.49 ± 0.26
AUUUAGCAAUAUUACGGCCU	0.607 ± 0.15	-0.166 ± 0.16
AUUUAGCAAUAUUACGGGGG	-2.97 ± 0.42	-2.81 ± 0.47
AUUUAGCAAUAUUACGGUCA	-0.961 ± 0.13	-0.48 ± 0.12
AUUUAGCAAUAUUACGGUCG	-1.98 ± 0.15	-1.38 ± 0.22
AUUUAGCAAUAUUACGGUGU	-2.3 ± 0.095	-1.48 ± 0.11
AUUUAGCAAUAUUACGUCGC	-3.64 ± 0.26	-2.2 ± 0.21
AUUUAGCAAUAUUACGUCUU	-0.374 ± 0.12	0.156 ± 0.17
AUUUAGCAAUAUUACGUGAC	-2.58 ± 0.18	-1.49 ± 0.36
CAAAAGCAAUAUUACGACGG	0.122 ± 0.076	-0.14 ± 0.09
CAAAAGCAAUAUUACGACUC	-1.44 ± 0.11	-0.245 ± 0.13

Sequence	self-splicing fitness (ln) (30 °C)	self-splicing fitness (ln) (37 °C)
CAAAAGCAAUAUUACGCACC	-2.48 ± 0.31	-0.0893 ± 0.26
CAAAAGCAAUAUUACGCAUA	-3.58 ± 0.17	-1.77 ± 0.12
CAAAAGCAAUAUUACGCCGA	-2.91 ± 0.23	-2.49 ± 0.25
CAAAAGCAAUAUUACGCGCA	-1.05 ± 0.1	-0.548 ± 0.1
CAAAAGCAAUAUUACGCUAC	-3.82 ± 0.26	-2.59 ± 0.25
CAAAAGCAAUAUUACGCUCG	-1.25 ± 0.12	-0.455 ± 0.12
CAAAAGCAAUAUUACGGAAU	-3.21 ± 0.21	-2.56 ± 0.17
CAAAAGCAAUAUUACGGAUC	-3.73 ± 0.22	-1.98 ± 0.16
CAAAAGCAAUAUUACGGGGG	-3.13 ± 0.18	-2.38 ± 0.15
CAAAAGCAAUAUUACGGGUC	-3.11 ± 0.094	-2.51 ± 0.12
CAAAAGCAAUAUUACGGUUC	-3.56 ± 0.22	-1.83 ± 0.18
CAAAAGCAAUAUUACGUCGC	-4.14 ± 0.28	-2.35 ± 0.25
CAAAAGCAAUAUUACGUCGG	-0.932 ± 0.073	-0.25 ± 0.1
CAAAAGCAAUAUUACGUCUU	-2.5 ± 0.082	-1.24 ± 0.08
CAAAAGCAAUAUUACGUGAC	-5 ± 0.36	-2.47 ± 0.18
CAACAGCAAUAUUACGACAU	-2.026 ± 0.012	-1.04 ± 0.032
CAACAGCAAUAUUACGAGAC	-2.57 ± 0.11	-2.22 ± 0.14
CAACAGCAAUAUUACGAGGC	-3.79 ± 0.36	-1.77 ± 0.18
CAACAGCAAUAUUACGAGUG	-1.59 ± 0.051	-0.292 ± 0.071
CAACAGCAAUAUUACGAGUU	-2.6 ± 0.096	-2.09 ± 0.13
CAACAGCAAUAUUACGAUUA	-0.522 ± 0.082	-0.185 ± 0.082
CAACAGCAAUAUUACGCACU	-2.34 ± 0.14	-0.357 ± 0.12
CAACAGCAAUAUUACGCAUA	-2.7 ± 0.12	-1.4 ± 0.098
CAACAGCAAUAUUACGCAUG	-2.41 ± 0.11	-1.27 ± 0.14
CAACAGCAAUAUUACGCGGG	-2.63 ± 0.14	-2.12 ± 0.14
CAACAGCAAUAUUACGGCGA	-1.5 ± 0.094	-0.709 ± 0.087

Sequence	self-splicing fitness (ln) (30 °C)	self-splicing fitness (ln) (37 °C)
CAACAGCAAUAUUACGGGCG	-0.0253 ± 0.049	0.154 ± 0.062
CAACAGCAAUAUUACGGUGG	-2.15 ± 0.083	-0.724 ± 0.082
CAACAGCAAUAUUACGUCGG	-0.576 ± 0.052	-0.369 ± 0.065
CAACAGCAAUAUUACGUUCA	-1.06 ± 0.051	0.193 ± 0.061
CAACAGCAAUAUUACGUUCC	-2.46 ± 0.096	-2.02 ± 0.12
CAACAGCAAUAUUACGUUCG	-0.959 ± 0.051	-0.171 ± 0.065
CAAGAGCAAUAUUACGACAU	-3.534 ± 0.024	-2.85 ± 0.041
CAAGAGCAAUAUUACGACGU	-2.88 ± 0.23	
CAAGAGCAAUAUUACGAUAC	-2.8 ± 0.34	
CAAGAGCAAUAUUACGAUUU	-3.11 ± 0.2	-2.45 ± 0.16
CAAGAGCAAUAUUACGCAGA	-3.45 ± 0.19	-2.12 ± 0.16
CAAGAGCAAUAUUACGCGCA	-3.48 ± 0.37	-2.09 ± 0.25
CAAGAGCAAUAUUACGGCAC	-4.28 ± 0.24	-2.53 ± 0.18
CAAGAGCAAUAUUACGGCGA	-3.9 ± 0.28	-3.24 ± 0.18
CAAGAGCAAUAUUACGGCUG	-0.309 ± 0.098	-0.473 ± 0.16
CAAGAGCAAUAUUACGGGUG	-1.74 ± 0.078	-1.17 ± 0.1
CAAGAGCAAUAUUACGGUAA	-3.24 ± 0.23	-2.14 ± 0.21
CAAGAGCAAUAUUACGGUAU	-4.27 ± 0.22	-2.63 ± 0.21
CAAGAGCAAUAUUACGGUGC	-3.03 ± 0.31	-2.09 ± 0.35
CAAGAGCAAUAUUACGGUUC	-3.57 ± 0.24	-2.34 ± 0.25
CAAGAGCAAUAUUACGUAAA	-4.16 ± 0.29	-3.01 ± 0.26
CAAGAGCAAUAUUACGUCAC	-3.05 ± 0.21	-2.75 ± 0.23
CAAGAGCAAUAUUACGUCGA	-3.3 ± 0.21	-2.2 ± 0.24
CAAGAGCAAUAUUACGUGAC		-3.01 ± 0.18
CAAGAGCAAUAUUACGUGCA	-2.97 ± 0.21	-3.06 ± 0.43
